Experimental data reported in publication PMC4355418.

How the values were obtained:
Assay in all cases: peptide binding assay on Ni2+ coated plate (absorbance at 405 nm)
[1] = target: T1, CRK1 hC peptide (helix-C region of the CRK1 kinase domain); details: chain shown with the change; protein immobilized on a Ni2+ coated plate; triplicate; SUMO control absorbance subtracted; parent: est. 0.39; read off a plot
T1 chain: HRRADKDSAFVNELES

[2] = target: T2, JMD1 peptide of the ACR4 juxtamembrane domain; details: chain shown with the change; protein immobilized on a Ni2+ coated plate; triplicate; SUMO control absorbance subtracted; parent: est. 0.14; read off a plot
T2 chain: DTRSSKDSAFTKDNG

[3] = target: T3, pJMD1 peptide (JMD1 with phosphorylated Ser475); details: chain shown with the change; protein immobilized on a Ni2+ coated plate; triplicate; SUMO control absorbance subtracted; parent: est. 0.29; read off a plot
T3 chain: DTRSSKDSAFTKDNG

B1: SUMO-tagged ACR4 KC (sACR4 KC), ACR4 intracellular domain lacking the JMD, Q9LX29 LLSLL motif replaced with AAAAA (residue numbers not printed) (protein)
chain: FKEESIVGKGSFSCVYKGVLRDGTTVAVKRAIMSSDKQKNSNEFRTELDLLSRLNHAHAAAAAGYCEECGERLLVYEFMAHGSLHNHLHGKNKALKEQLDWVKRVTIAVQAARGIEYLHGYACPPVIHRDIKSSNILIDEEHNARVADFGLSLLGPVDSGSPLAELPAGTLGYLDPEYYRLHYLTTKSDVYSFGVLLLEILSGRKAIDMHYEEGNIVEWAVPLIKAGDINALLDPVLKHPSEIEALKRIVSVACKCVRMRGKDRPSMDKVTTALERALAQLMGNPSSEQPILPTEVVLGSSRMHKKSWRIGSKRSGSENTEFRGGSWITFPSVTSSQRRKSSASEGDVAEEEDEGRKQQEALRSLEEEIGPASPGQSLFLHHNF
response [1]: 0.3 A405 | response [2]: 0.042 A405 | response [3]: 0.17 A405
